T1: TNF-beta (human, UniProt P01374 35-205)
T1 construct: also called TNFβ; Tumour Necrosis Factor-beta
T1 sequence (looked up): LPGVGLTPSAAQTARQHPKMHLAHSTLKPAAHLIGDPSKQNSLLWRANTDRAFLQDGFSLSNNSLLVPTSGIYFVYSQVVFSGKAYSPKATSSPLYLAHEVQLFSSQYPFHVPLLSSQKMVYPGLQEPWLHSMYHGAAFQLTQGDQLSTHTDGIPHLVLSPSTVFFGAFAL

T2: Fas ligand (human, UniProt P48023 134-281, limits assumed)
T2 sequence (looked up): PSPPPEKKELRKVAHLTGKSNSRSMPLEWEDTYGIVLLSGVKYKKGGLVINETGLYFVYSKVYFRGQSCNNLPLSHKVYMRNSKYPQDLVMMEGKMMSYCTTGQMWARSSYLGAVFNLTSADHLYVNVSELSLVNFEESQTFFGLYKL


Tests used:
[1] = target: T3, B Lymphocyte Stimulator, soluble form (human) (human, UniProt Q9Y275 134-285, biotinylated with NHS-biotin where used as biotinylated B Lymphocyte Stimulator); test: phage competition ELISA
T3 construct: Coated on plastic, captured on streptavidin plates, amine-coupled to a CM5 chip or free in solution, depending on the assay; also called BLyS; immobilized B Lymphocyte Stimulator

[2] = target: T4, membrane-bound B Lymphocyte Stimulator on U937 plasma membrane preparations (human, UniProt Q9Y275 1-285); test: phage ELISA
T4 construct: Natural protein in plasma membrane fractions of the human cell line U937 coated on ELISA plates; also called U937 plasma membranes; U937 membranes

TRAIL = target: T5, TRAIL (human, UniProt P50591 114-281); test: phage ELISA
T5 construct: also called TNF-related apoptosis inducing ligand

TNF-beta = target: T1, TNF-beta; test: phage ELISA
TNF-alpha = target: T6, TNF-alpha (human, UniProt P01375 77-233); test: phage ELISA
T6 construct: also called TNFα; TNF-α

Fas ligand = target: T2, Fas ligand; test: phage ELISA

Binder | binding result [1] | binding result [2] | binding result (TRAIL) | binding result (TNF-beta) | binding result (TNF-alpha) | binding result (Fas ligand)
I029F11 (scFv) scFv: QVQLVQSRAEVKRPGASVKVSCKASGYRFGSYGITWVRQAPGQGLEWMGWISTRYGDTKSAQKVEGRVTLTTDTSTSTAYMELRSLRSDDTAVYYCARDGSYDILTGYYIDNYMDVWGRGTLVTVSSGGGGSGGGGSGGGGSQSVLTQPPSASGTPGQRVTISCSGSSSNIGSNTVNWYQRLPGAAPQLLIYNNDQRPSGIPDRFSGSKSGTSGSLVISGLQSEDEADYYCASWDDSLNGRVFGGGTKLTVLG | binds | binds | no binding | no binding | no binding | no binding
I006D08 (scFv) scFv: QVQLQQSGAEVKKPGSSVRVSCKASGGTFNNNAINWVRQAPGQGLEWMGGIIPMFGTAKYSQNFQGRVAITADESTSTASMELSSLRSEDTAVYYCARSRDLLLFPHYGMDVWGRGTMVTVSSGGGGSGGGGSGGGGSAFSSELTQDPAVSVALGQTVRVTCQGDSLRSYYASWYQQKPGQAPVLVIYGKNNRPSGIPDRFSGSSSGNTASLTITGAQAEDEADYYCNSRDSSGNHWVFGGGTELTVLG | binds | binds | no binding | no binding | no binding | no binding
I021B05 (scFv) scFv: QVQQSGADVKKPGGSLRLSCAASGFTFSSYSMNWVRQAPGKGLEWVSSISSSSSYIYYADSVKGRFTISRDNAKNSLYLQMNSLRAEDTAVYYCAREGGNYDILTGYYIGNGAFDIWGRGTMVTVSSGGGGSGGGGSGGGGSQSVLTQPASVSGSPGQSITISCTGTSSDVGGYNYVSWYQQHPGKAPKLMIYEGSKRPSGVSNRFSGSKSGNTASLTISGLQAEDEADYYCSSYTTRSTRVFGGGTKLTVLG | binds | binds | no binding | no binding | no binding | no binding
I026E03 (scFv) scFv: EVQLVQSGGEVKRPGASVKVSCKASGYTFSRYGISWVRQAPGQGLEWMGWISAYNGKTSFAEKFQGRVTLTTDTSTTTVDMELRNLRSDDTAVYYCARTDYDILTGYPMGYFDPWGKGTLVTVSSGGGGSGGGGSGGGGSALSSELTQDPAVSVALGQTVKITCQGDSLRSFYAAWYQQKPGQAPILVISGKNNRPSGIPDRFSGSSSGNTASLTITGAQAEDEADYYCNSRDTSGNHYVFGAGTKLTVLG | binds | binds | no binding | no binding | no binding | no binding
I007B03 (scFv) scFv: GVQLQQSGAEVKKPGSSVKVSCKASGGTFNTSGITWVRQAPGQGLEWMGWMNPNTGDTAYAQEFQGRVIMTRDTSISTAYMELSSLRSEDTAVYYCARDGSYDILTGYYIDNYMDVWGQGTMVTVSSGGGGSGGGGSGGGGSQSVLTQPASVSGSPGQSITISCTGTSSDVGGYNYVSWYQQHPGKAPKLMIYEGSKRPSGVSNRFSGSKSGNTASLTISGLQAEDEADYYCSSYTTRSTRVFGGGTKLTVLG | binds | binds | no binding | no binding | no binding | no binding
I018C10 (scFv) scFv: GVQLVQSGPEVKKPGASVKVSCTASGYTFTSYGVSWVRQAPGQGLEWIGWISAHNGQTKYAEKFQGRVTMTRNTSISTAYMELSSLRSEDTVVYYCARDGSYDILTGYYIDNYMDVWGKGTMVTVSSGGGGSGGGGSGGGGSSELTQDPAVSVALGQTVRITCQGDSLRSYYTNWFQQKPGQAPLLVVYAKNKRPSGIPDRFSGSSSGNTASLTITGAQAEDEADYYCHSRDSSGNHVLFGGGTKLTVLG | binds | binds | no binding | no binding | no binding | no binding
I022D01 (scFv) scFv: EVNLRESGGGVDQPGRSLRLSCAASGFTFSSYGMHWVRQAPGKGLEWVAVISYDGSNKYYADSVKGRFTISRDNSKNTLYLQMNSLRAEDTAVYYCAKDGYYDILTGYSYYGMDVWGQGPMVAVSSGGGGSGGGGSGGGGSSELTQDPAVSVALGQTVRITCQGDSLRSYYTNWFQQKPGQAPLLVVYAKNKRPSGIPDRFSGSSSGNTASLTITGAQAEDEADYYCNSRDSSGNHVVFGGGTKLTVLG | binds | binds | no binding | no binding | no binding | no binding
I008A09 (scFv) scFv: GVQLVQSGGGVVQPGGSLRLSCAASGFTFSSYGMHWVRQAPGKGLEWVAVISYDGSNKYYADSVKGRFTISRDNSKNTLYLQMNSLRAEDTAVYYCARDREAYYDILTGYYLYYYYMDVWGRGTTVTVSSGGGGSGGGGSGGGGSQSVLTQPASVSGSPGQSITISCTGTSSDVGGYNYVSWYQQHPGKAPKLMIYEGSKRPSGVSNRFSGSKSGNTASLTISGLQAEDEADYYCSSYTTGSTRVFGGGTKLTVLG | binds | binds | no binding | no binding | no binding | no binding
I016F02 (scFv) scFv: GVQLVESGAEVKKPGASVKVSCRTSGYTFTSNSFSWVRQAPGQGLEWMGGIIPIFGTANYAQKLQGRVTITADELTRTVYMDLSSLRSEDTAVYYCATGMGDHYGMDVWGRGTLVTVSSGGGGSGGGGSGGGGSQSVLTQPASVSGSPGQSITISCTGTSSDVGGYNYVSWYQQHPGKAPKLMIYEGSKRPSGVSNRFSGSKSGNTASLTISGLQAEDEADYYCSSYTTRSTRVFGGGTKLTVLG | binds | binds | no binding | no binding | no binding | no binding
I061H01 (scFv, also called 1061H01) scFv: QVQLVQSGGGLVKPGGSLRLSCAASGFTFSNAWMSWVRQAPGKGLQWVGRIKSKTDGGTTDYAAPVKGRFTISRDDSKNTLYLQMNSLKTEDTAVYYCTTFNPTYDILTGYYIGGYFQHWGQGTMVTVSSGGGGSGGGGSGGGGSQSVLTQPASVSGSPGQSITISCTGTSSDVGGYNYVSWYQQHPGKAPKLMIYEGSKRPSGVSNRFSGSKSGNTASLTISGLQAEDEADYYCSSYTTRSTRVFGGGTQLTVLG | binds | binds | no binding | no binding | no binding | no binding
I007H08 (scFv) scFv: QVQLQQSGPGLVKPSQILSLTCAISGDSVASNGAAWNWIRQSPSRGLEWLGRTYYRSKWYVDYAVSVKSRITINPDTSKNQFSLQLNSVTPEDTAVYYCARDRYDILTGYYYYGMDVWGQGTMVTVSSGGGGSGGGGSGGGGSQSALTQPASVSGSRGQSITISCTGTTGDVGGYDYVSWYQQHPGKAPKLLIYGNSNRPSGVPDRFSASKSGNTASLTISGLQAEDEADYFCNTYAPPGIIMFGGGTKLTVLG | binds | binds | no binding | no binding | no binding | no binding
I008A11 (scFv) scFv: QVQLQQSGPGLVKPSQILSLTCAISGDSVASNGAAWNWIRQSPSRGLEWLGRTYYRSKWYVDYAVSVKSRITINPDTSKNQFSLQLNSVTPEDTAVYYCARDRYDILTGYYYYGMDVWGQGTMVTVSSGGGGSGGGGSGGGGSQSALTQPASVSGSRGQSITISCTGTTGDVGGYDYVSWYQQHPGKAPKLLIYGNSNRPSGVPDRFSASKSGNTASLTISGLQAEDEADYFCSTYAPPGIIMFGGGTKLTVLG | binds | binds | no binding | no binding | no binding | no binding
I031G10 (scFv) scFv: QVQLVQSGAEVKKPGSSVKVSCRVSGGSFTDDSINWLRQAPGQGLEWVGGTIPLANRANYAQKFRDRVTITADELTATVFLELTSLRSDDTALYYCARSSPPKWYDALTGDSSYHSAMDVWGRGTLVTVSSGGGGSGGGGSGGGGSAQSVVTQPPSVSAAPGQKVTISCSGSTSNIGRNYVSWYQQLPGTATKLLIYDNNKRPSGIPDRFSGSKSGTSATLGITGLQTGDEADYYCGTWDSSLRIYVFGTGTKVTVLG | binds | binds | no binding | no binding | no binding | no binding

— patent US20110293610A1 (published 2011)
